Experimental data reported in doi:10.1101/2021.08.19.457009 (bioRxiv, 2021).
Non-standard residues stand in square brackets, D forms with d. No end group written: not given here. pS = N[C@@H](COP(=O)(O)O)C(=O)O

T1: human 6His-14-3-3ζ (human, UniProt P63104 1-245)
T1 sequence (looked up): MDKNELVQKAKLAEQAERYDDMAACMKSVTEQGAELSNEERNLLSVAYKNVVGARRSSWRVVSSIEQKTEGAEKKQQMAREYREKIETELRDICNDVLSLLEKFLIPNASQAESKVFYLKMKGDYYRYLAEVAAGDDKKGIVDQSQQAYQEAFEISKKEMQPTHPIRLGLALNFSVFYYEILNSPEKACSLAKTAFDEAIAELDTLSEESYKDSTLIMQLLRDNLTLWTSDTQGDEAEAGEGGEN


Assays:
human 6His-14-3-3ζ [1] = biological target: T1, human 6His-14-3-3ζ; experiment: pull-down
human 6His-14-3-3ζ [2] = biological target: T1, human 6His-14-3-3ζ; experiment: ITC

SNAP-TM-HCN1CT reporter also lacking the region containing peptide B (residues 790-820) (domain or fragment), sequence (O88704 whole entry, the tested form may be a part): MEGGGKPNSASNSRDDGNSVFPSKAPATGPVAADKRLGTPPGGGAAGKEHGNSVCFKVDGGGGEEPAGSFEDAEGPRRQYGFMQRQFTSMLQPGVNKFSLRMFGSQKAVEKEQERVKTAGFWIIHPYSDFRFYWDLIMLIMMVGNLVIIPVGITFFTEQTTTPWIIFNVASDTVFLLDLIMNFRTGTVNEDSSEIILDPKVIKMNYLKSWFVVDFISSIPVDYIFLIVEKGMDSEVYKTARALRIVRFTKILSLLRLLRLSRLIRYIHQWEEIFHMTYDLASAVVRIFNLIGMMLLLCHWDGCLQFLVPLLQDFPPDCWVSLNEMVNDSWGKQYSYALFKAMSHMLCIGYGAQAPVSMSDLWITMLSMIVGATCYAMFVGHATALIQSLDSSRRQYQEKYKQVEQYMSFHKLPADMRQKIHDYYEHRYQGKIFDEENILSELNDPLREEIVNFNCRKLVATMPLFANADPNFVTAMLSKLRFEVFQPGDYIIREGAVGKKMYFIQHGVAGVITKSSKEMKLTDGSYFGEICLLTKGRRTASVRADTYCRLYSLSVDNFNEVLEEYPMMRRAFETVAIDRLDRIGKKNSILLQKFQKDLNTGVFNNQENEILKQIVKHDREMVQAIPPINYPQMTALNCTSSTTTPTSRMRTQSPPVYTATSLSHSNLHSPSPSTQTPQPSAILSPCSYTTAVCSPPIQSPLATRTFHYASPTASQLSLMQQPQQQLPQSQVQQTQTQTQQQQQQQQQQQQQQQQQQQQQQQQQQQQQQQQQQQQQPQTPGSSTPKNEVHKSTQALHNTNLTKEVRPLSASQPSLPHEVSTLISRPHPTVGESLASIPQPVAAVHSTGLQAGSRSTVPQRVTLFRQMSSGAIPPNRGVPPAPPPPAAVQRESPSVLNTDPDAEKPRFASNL
SNAP-TM-HCN1CT reporter lacking the region containing peptide C (amino acids 850-880) (domain or fragment), sequence (O88704 whole entry, the tested form may be a part): as above
SNAP-TM-HCN1CT reporter lacking the distal 30 amino acid block with the TRIP8b-tripeptide binding site (domain or fragment), sequence (O88704 whole entry, the tested form may be a part): as above

Molecule | amount pulled down relative to CT (598-910) (human 6His-14-3-3ζ [1]) [fold] | Kd (human 6His-14-3-3ζ [2]) [µM] | further results
SNAP-TM-HCN1CT reporter also lacking the region containing peptide B (residues 790-820) (domain or fragment) | 0.23 |  | 
VRPLSA[pS]QPSL [HCN1 phospho-peptide B] |  | 25 | 
SNAP-TM-HCN1CT reporter truncated of residues 803-910 (domain or fragment, mouse, UniProt O88704 598-802, looked up) LNTGVFNNQENEILKQIVKHDREMVQAIPPINYPQMTALNCTSSTTTPTSRMRTQSPPVYTATSLSHSNLHSPSPSTQTPQPSAILSPCSYTTAVCSPPIQSPLATRTFHYASPTASQLSLMQQPQQQLPQSQVQQTQTQTQQQQQQQQQQQQQQQQQQQQQQQQQQQQQQQQQQQQQPQTPGSSTPKNEVHKSTQALHNTNLTK |  |  | amount pulled down relative to CT_(598-910) (human 6His-14-3-3ζ [1]): 0.2 fold
SNAP-TM-HCN1CT reporter CT_(731-910; Δ804-814; Δ861-871) (domain or fragment, mouse, UniProt O88704 731-910, looked up) VQQTQTQTQQQQQQQQQQQQQQQQQQQQQQQQQQQQQQQQQQQQQPQTPGSSTPKNEVHKSTQALHNTNLTKEPHEVSTLISRPHPTVGESLASIPQPVAAVHSTGLQAGSRSTVPQRVPPNRGVPPAPPPPAAVQRESPSVLNTDPDAEKPRFASNL |  |  | amount pulled down relative to CT_(731-910) (human 6His-14-3-3ζ [1]): 0.26 fold
TLFRQM[pS]SGAI [HCN1 phospho-peptide C] |  | 15 | 
SRMRTQ[pS]PPVY [HCN1 phospho-peptide A] |  | 16 | 
SNAP-TM-HCN1CT reporter CT_(731-910) (domain or fragment, mouse, UniProt O88704 731-910, looked up) VQQTQTQTQQQQQQQQQQQQQQQQQQQQQQQQQQQQQQQQQQQQQPQTPGSSTPKNEVHKSTQALHNTNLTKEVRPLSASQPSLPHEVSTLISRPHPTVGESLASIPQPVAAVHSTGLQAGSRSTVPQRVTLFRQMSSGAIPPNRGVPPAPPPPAAVQRESPSVLNTDPDAEKPRFASNL |  |  | amount pulled down relative to CT_(598-910) (human 6His-14-3-3ζ [1]): 1.39 fold
SNAP-TM-HCN1CT reporter CT_(731-910; S810A; S867A) (domain or fragment, mouse, UniProt O88704 731-910, looked up) VQQTQTQTQQQQQQQQQQQQQQQQQQQQQQQQQQQQQQQQQQQQQPQTPGSSTPKNEVHKSTQALHNTNLTKEVRPLSAAQPSLPHEVSTLISRPHPTVGESLASIPQPVAAVHSTGLQAGSRSTVPQRVTLFRQMASGAIPPNRGVPPAPPPPAAVQRESPSVLNTDPDAEKPRFASNL |  |  | amount pulled down relative to CT_(731-910) (human 6His-14-3-3ζ [1]): 0.33 fold

More lines, main results first:

amount pulled down relative to CT (598-910) (human 6His-14-3-3ζ [1]) [fold] | Kd (human 6His-14-3-3ζ [2]) [µM] | Molecule | further results
0.61 |  | SNAP-TM-HCN1CT reporter lacking the region containing peptide C (amino acids 850-880) (domain or fragment) | 
1.18 |  | SNAP-TM-HCN1CT reporter lacking the distal 30 amino acid block with the TRIP8b-tripeptide binding site (domain or fragment) | 
